From US7803757B2, “Peptides based on the sequence of human lactoferrin and their use” (PharmaSurgics in Sweden AB, priority 1998, dated 2010)

What was measured:
E. coli O14 = experiment: bactericidal activity, incubation with E. coli O14 (Example 3, exp. I and III); format: cell-based
Method: (§1) Human lactoferrin (hLF), peptide 3, and peptide 4, respectively, were incubated with two different strains of E. coli, E. coli O14 (experiment I) and O6K5 (experiment II), in diluted growth medium ( 1/100 BHI—brain heart infusion) for 2 hours. The peptides were also incubated with E. coli O14 in 0.05 mM KCl (pH 7) without any growth medium (experiment III). Different concentrations of the peptides were tested.
(§2) After the incubation, samples were taken for bacterial plating. Serial dilutions of five- and fourfold steps were used in experiments I and II, respectively, and of twofold steps in experiment III.
(§3) The concentrations of the different peptides required for killing 100% (experiments I and II) or 90% (experiment III) of the bacteria are given in table 2.

E. coli O6K5 [1] = experiment: bactericidal activity, incubation with E. coli O6K5 (Example 3, exp. II); format: cell-based; settings: Exp. II: 100% killing, E. coli O6K5, 1/100 BHI, 2 hours
Method: as §1, §2, §3

Candida albicans [2] = experiment: fungicidal activity against Candida albicans strains (Example 4); format: cell-based
Method: (§4) In this example the fungicidal activity of the peptides according to the invention was tested and compared to the fungicidal activity of human lactoferrin. Different concentrations of hLF, peptide 3 and peptide 4 were incubated with different strains of Candida albicans and Candida krusei during 1-2 hours at 37° C. in 0.05 mM KCl at pH 7.0 at two different occasions—experiment I and II, respectively. After incubation samples were taken for plating on Saboroud plates.

Candida krusei = experiment: fungicidal activity against Candida krusei strains (Example 4); format: cell-based; settings: Exp. I
Method: as §4

[3] = tested on: LPS-induced IL-6 response in a monocytic cell line (THP-1); experiment: inhibition of LPS-induced IL-6 response in THP-1 cells (Example 5); format: cell-based; settings: IL-6 response in THP-1 cells, agent added 30 minutes after LPS
Method: In this example an in vitro test was performed to study the anti-inflammatory activity of the peptides according to the invention. More precisely, the inhibitory effect of the peptides according to the invention on the LPS-induced IL-6 response in a monocytic cell line (THP-1) was studied and compared to the effect of human lactoferrin by use of the method described by I. Mattsby-Baltzer et al., Pediatr. Res. 40:257-262, 1996. The IL-6 response in the THP-1 cells was induced by addition of LPS. hLF, peptide 3 and peptide 4, respectively, were added 30 minutes after LPS.

E. coli O6K5 [4] = experiment: urinary tract infection in mice, bacteria (CFU) in kidney (Example 6); format: in vivo; settings: Exp II, mouse strain C3H/Tif, 500 μg per mouse orally 30 minutes after instillation, 24 hours
Method: E. coli O6K5 was instilled into the urinary bladder of mice. 30 minutes after instillation the different agents specified in table 5 were administered orally in an amount of 500 μg per mouse and 24 hours after instillation the number of bacteria (CFU) present in bladder and in kidney was determined.
The control group consisted of 10 animals in experiment I and of 23 animals in experiment II. The animals in the control groups were given tap water instead of peptide or hLF.

Candida albicans [5] = experiment: fungicidal activity against Candida albicans, comparison with EP-A-0 629 347 peptides (Example 7); format: cell-based; settings: C. albicans, I (tenfold steps)
Method: In this example an in vitro test was performed to compare the bactericidal and fungicidal activity of the peptides according to the invention with peptides described in EP-A-0 629 347. The peptide according to the invention used was peptide 4, and the peptides according to EP-A-0 629 347 called Morinaga 10, Morinaga 11, Morinaga 12, and Morinaga 13.
The peptides were incubated with E. coli O14 and Candida albicans. Two concentrations of C. albicans yeast cells were tested, 5·10^6 and 5·10^3 per ml. Different concentrations of the peptides were tested.
After the incubation, samples were taken for bacterial plating. Serial dilutions of tenfold steps were used in the experiments marked with I in table 5 and of twofold steps in the experiments marked with II.

C. albicans (ATCC 64549) = experiment: microbe, parasite or virus in culture; settings: C. albicans ATCC 64549, 2×10^5 cells/ml, BHI diluted 1/100
Method: In the examples, the minimal microbicidal concentrations (MMC) and minimal inhibitory concentrations (MIC) were determined as follows, unless otherwise specified in the examples. Bacterial or fungal strains were cultured in BHI medium over night at 37° C. A volume of the culture was transferred to a new tube with BHI and incubated for two more hours. Thereafter the cells were spun down and the pellet was suspended in BHI medium diluted 1/100 (1% BHI). The concentration of bacterial or fungal cells was spectrophotometrically determined at 650 nm. The microbial concentrations were also determined by viable counts. Peptides serially diluted in 1% BHI by twofold or tenfold steps were added in triplicate to the wells of a microtiterplate (200 μl per well). The bacterial or fungal cell solutions were added in 10 μl volumes to give a final concentration of approximately 1-5×10^5 cells per ml in the well. The microplate was incubated at 37° C. in a humid chamber for two hours. […] The microplate was incubated for another 20 hours at 37° C. and thereafter analysed spectrophotometrically at 650 nm in a microplate reader (Emax, Molecular Devices, USA). […] The MIC value was defined as the concentration giving no increase in the absorbance value above the background level after 20 hours of incubation. […]

B1: human lactoferrin (protein, UniProt P02788 20-710, looked up)
Lactotransferrin: GRRRSVQWCAVSQPEATKCFQWQRNMRKVRGPPVSCIKRDSPIQCIQAIAENRADAVTLDGGFIYEAGLAPYKLRPVAAEVYGTERQPRTHYYAVAVVKKGGSFQLNELQGLKSCHTGLRRTAGWNVPIGTLRPFLNWTGPPEPIEAAVARFFSASCVPGADKGQFPNLCRLCAGTGENKCAFSSQEPYFSYSGAFKCLRDGAGDVAFIRESTVFEDLSDEAERDEYELLCPDNTRKPVDKFKDCHLARVPSHAVVARSVNGKEDAIWNLLRQAQEKFGKDKSPKFQLFGSPSGQKDLLFKDSAIGFSRVPPRIDSGLYLGSGYFTAIQNLRKSEEEVAARRARVVWCAVGEQELRKCNQWSGLSEGSVTCSSASTTEDCIALVLKGEADAMSLDGGYVYTAGKCGLVPVLAENYKSQQSSDPDPNCVDRPVEGYLAVAVVRRSDTSLTWNSVKGKKSCHTAVDRTAGWNIPMGLLFNQTGSCKFDEYFSQSCAPGSDPRSNLCALCIGDEQGENKCVPNSNERYYGYTGAFRCLAENAGDVAFVKDVTVLQNTDGNNNEAWAKDLKLADFALLCLDGKRKPVTEARSCHLAMAPNHAVVSRMDKVERLKQVLLHQQAKFGRNGSDCPDKFCLFQSETKNLLFNDNTECLARLHGKTTYEKYLGPQYVAGITNLKKCSTSPLLEACEFLRK
E. coli O14; Exp. I: 100% killing, E. coli O14, 1/100 BHI, 2 hours
  Concentration of agent for 100%/90% killing: 400 µg/mL
E. coli O14; Exp. III: 90% killing, E. coli O14, 0.05 mM KCl (pH 7) without growth medium
  Concentration of agent for 100%/90% killing: >4000 µg/mL
E. coli O6K5 [1]
  Concentration of agent for 100%/90% killing: 2000 µg/mL
Candida albicans [2]; Exp. I, C. albicans ATCC 64549, 0.05 mM KCl pH 7.0, 1-2 hours 37° C.
  Concentration of agent for 99% killing: >50 µg/mL
Candida albicans [2]; Exp. I, C. albicans CCUG 90028, 0.05 mM KCl pH 7.0
  Concentration of agent for 99% killing: >50 µg/mL
Candida albicans [2]; Exp. II, C. albicans ATCC 64549, 0.05 mM KCl pH 7.0
  Concentration of agent for 99% killing: >200 µg/mL
Candida albicans [2]; Exp. II, C. albicans CCUG 599, 0.05 mM KCl pH 7.0
  Concentration of agent for 99% killing: >200 µg/mL
Candida albicans [2]; Exp. II, C. albicans CCUG 1759, 0.05 mM KCl pH 7.0
  Concentration of agent for 99% killing: >200 µg/mL
Candida krusei; C. krusei CCUG 969, 0.05 mM KCl pH 7.0
  Concentration of agent for 99% killing: 25 µg/mL
Candida krusei; C. krusei CCUG 35849, 0.05 mM KCl pH 7.0
  Concentration of agent for 99% killing: 12.5 µg/mL
[3]
  % inhibition of LPS response: 15%
E. coli O6K5 [4]
  Statistical comparison of treatment group with control group of the number of bacteria, CFU, present in kidney (p, Mann-Whitney): p = 0.006
Candida albicans [5]; 5 · 10^3 yeast cells per ml
  Concentration of agent for 100% killing: >2000 µg/mL
Candida albicans [5]; 5 · 10^6 yeast cells per ml
  Concentration of agent for 100% killing: >1000 µg/mL
C. albicans (ATCC 64549)
  MIC: 1000 µg/mL
  MMC99%: >1000 µg/mL
